Measurements from patent publication US9523084B2, “Phosphodeoxyribosyl transferase mutant enzymes and uses thereof” (Centre National De La Recherche Scientifique, priority 2012, dated 2016).

Assays:
[1] = substrate: Nc1ccn([C@H]2C[C@H](O)[C@@H](COP(=O)(O)O)O2)c(=O)n1; test: Kinetic parameters of PDT variants, dCMP + A ⇄ dAMP + C; assay type: biochemical, Lactobacillus leichmannii; details: adenine as acceptor, fixed, 37.0 °C
Description: The standard assay (“first protocol for enzyme assay”) for the different NDTs consisted of 5-15 μg of NDT in 50 mM MES buffer pH 6.0, dNxP (dNMP, or dNDP or dNTP) 3 mM and a base 1 mM in a total volume of 50 μL. Assays were incubated for 60 min at 37° C. The products of the reactions were analyzed each 7 min by Rapid resolution high performance liquid chromatography using a reverse-phase column (ZORBAX Eclipse XDB-C18 2.1*50 mm 1.8 μM) with a flow rate of 0.25 ml/min and a linear gradient of 1-12% CH3CN (2-25% CH3CN or 1-90% CH3CN) in 20 mM triethylammonium acetate, pH 7.5, buffer for 7 min. The low resolution mass spectra of the newly synthesized deoxyribonucleotides were obtained on an Agilent 1200 series LC/MS 6120 quadrupole system using an atmospheric electrospray ionization system.
This hypothesis was confirmed by monitoring the specific activity, in the presence of dCDP or dCTP as donor and adenine as acceptor (see table 2 above). The kinetic parameters were determined for the best variants with dCMP, dCDP and dCTP as substrates, at a concentration of A being fixed (see table 3 below).

[2] = Catalytic activity of PDTT2 to PDTT7, dATP formed (HPLC); assay type: biochemical; details: dCTP + A ⇄ dATP + C; 2 mM dCTP, 1 mM Adenine, 37° C., MES 50 mM pH6.0
Description: In specific cases, an alternative protocol was used to perform the enzyme assay. In this second protocol, the dNxP (dNMP, or dNDP or dNTP) concentration was of only 2 mM, instead of 3 mM. All of the other conditions were identical to those of the first protocol.
The catalytic activity of the mutant enzymes PDTT2, PDTT3, PDTT3b, PDTT4, PDTT5, PDTT6, PDTT7 has been compared. Briefly, a sufficient amount of enzyme mutant necessary to obtain a linear reaction over a period of one hour at 37° C. has been mixed in 2 mM dCTP and 1 mM Adenine in a final volume of 50 μL of MES buffer 50 mM pH6.0. Assays were incubated for 60 min at 37° C. The products of the reactions were analyzed each 7 min by Rapid resolution high performance liquid chromatography using a reverse-phase column (ZORBAX Eclipse XDB-C18 2.1*50 mm […]) with a flow rate of 0.25 ml/min and a linear gradient of 1-12% CH3CN (2-25% CH3CN or 1-90% CH3CN) in 20 mM triethylammonium acetate, pH 7.5, buffer for 7 min.

B1: Lactobacillus leichmannii nucleoside deoxyribosyltransferase (NDT, SEQ ID NO:1) variant PDTM3, R13 S92 (F13R/D92S), SEQ ID NO:5 (Lactobacillus leichmannii; … (protein)
chain: MPKKTIYFGAGWRTDRQNKAYKEAMEALKENPTIDLENSYVPLDNQYKGIRVDEHPEYLHDKVWATATYNNDLNGIKTNDIMLGVYIPDEESVGLGMELGYALSQGKYVLLVIPDEDYGKPINLMSWGVSDNVIKMSQLKDFNFNKPRFDFYEGAVY
notes: homohexamer (108 kDa)
Km ([1]; other: PDTM3): 22 mM | kcat ([1]; other: PDTM3): 0.3 s⁻¹

B2: PDTT4: PDTT2 mutant with Serine at position 93 and Lysine at position 157, SEQ ID NO:40 (protein)
chain: MPKKTIYFGAGWRTDRQNKAYKEAMEALKENPTIDLENSYVPLDNQYKGIRVDEHPEYLHDKVWATATYNNDLNGIKTNDIMLGVYIPDEQGSGLGMELGYALSQGKYVLLVIPDEDYGKPISLMSWGVSDNVIKMSQLKDFNFNKPRFDFYEGAVK
modifications: amino acid sequence of PDTT4 (G92/S123/R13/S93/K157/Q91)
Catalytic activity (nmol of dATP formed/min/mg of enzyme protein) [2]: 10.4 nmol of dATP formed/min/mg of enzyme protein

B3: Lactobacillus leichmannii nucleoside deoxyribosyltransferase (NDT, SEQ ID NO:1) variant PDTM4, R13 S92 S123 (F13R/D92S/N123S), SEQ ID NO:6 (Lactobacillus … (protein)
chain: MPKKTIYFGAGWRTDRQNKAYKEAMEALKENPTIDLENSYVPLDNQYKGIRVDEHPEYLHDKVWATATYNNDLNGIKTNDIMLGVYIPDEESVGLGMELGYALSQGKYVLLVIPDEDYGKPISLMSWGVSDNVIKMSQLKDFNFNKPRFDFYEGAVY
notes: homohexamer (108 kDa)
Km ([1]; other: PDTM4): 11 mM | kcat ([1]; other: PDTM4): 2.1 s⁻¹

B4: PDTT3b: PDTT2 mutant with Glycine (G) at position 93 and Lysine at position 157, SEQ ID NO:39 (protein)
chain: MPKKTIYFGAGWRTDRQNKAYKEAMEALKENPTIDLENSYVPLDNQYKGIRVDEHPEYLHDKVWATATYNNDLNGIKTNDIMLGVYIPDEQGGGLGMELGYALSQGKYVLLVIPDEDYGKPISLMSWGVSDNVIKMSQLKDFNFNKPRFDFYEGAVK
modifications: amino acid sequence of PDTT3b (G92/S123/R13/G93/K157/Q91)
Catalytic activity (nmol of dATP formed/min/mg of enzyme protein) [2]: 6.5 nmol of dATP formed/min/mg of enzyme protein

B5: Lactobacillus leichmannii nucleoside deoxyribosyltransferase (NDT, SEQ ID NO:1) variant PDTT0, R13 G92 T93 S123 (F13R/D92G/V93T/N123S), SEQ ID NO:8 … (protein)
chain: MPKKTIYFGAGWRTDRQNKAYKEAMEALKENPTIDLENSYVPLDNQYKGIRVDEHPEYLHDKVWATATYNNDLNGIKTNDIMLGVYIPDEEGTGLGMELGYALSQGKYVLLVIPDEDYGKPISLMSWGVSDNVIKMSQLKDFNFNKPRFDFYEGAVY
notes: homohexamer (108 kDa)
Km ([1]; other: PDTT0): 9.2 mM | kcat ([1]; other: PDTT0): 0.45 s⁻¹

B6: PDTT5: PDTT3 mutant with Arginine at position 157, SEQ ID NO:41 (protein)
chain: MPKKTIYFGAGWRTDRQNKAYKEAMEALKENPTIDLENSYVPLDNQYKGIRVDEHPEYLHDKVWATATYNNDLNGIKTNDIMLGVYIPDEQGPGLGMELGYALSQGKYVLLVIPDEDYGKPISLMSWGVSDNVIKMSQLKDFNFNKPRFDFYEGAVR
modifications: amino acid sequence of PDTT5 (G92/S123/R13/P93/R157/Q91)
Catalytic activity (nmol of dATP formed/min/mg of enzyme protein) [2]: 27 nmol of dATP formed/min/mg of enzyme protein

B7: PDTT3: PDTT2 mutant with Proline at position 93 and Lysine at position 157, SEQ ID NO:38 (protein)
chain: MPKKTIYFGAGWRTDRQNKAYKEAMEALKENPTIDLENSYVPLDNQYKGIRVDEHPEYLHDKVWATATYNNDLNGIKTNDIMLGVYIPDEQGPGLGMELGYALSQGKYVLLVIPDEDYGKPISLMSWGVSDNVIKMSQLKDFNFNKPRFDFYEGAVK
modifications: amino acid sequence of PDTT3 (G92/S123/R13/P93/K157/Q91)
Catalytic activity (nmol of dATP formed/min/mg of enzyme protein) [2]: 2.7 nmol of dATP formed/min/mg of enzyme protein

B8: Lactobacillus leichmannii nucleoside deoxyribosyltransferase (NDT, SEQ ID NO:1) variant PDTM5, Q13 S92 S123 (F13Q/D92S/N123S), SEQ ID NO:7 (Lactobacillus … (protein)
chain: MPKKTIYFGAGWQTDRQNKAYKEAMEALKENPTIDLENSYVPLDNQYKGIRVDEHPEYLHDKVWATATYNNDLNGIKTNDIMLGVYIPDEESVGLGMELGYALSQGKYVLLVIPDEDYGKPISLMSWGVSDNVIKMSQLKDFNFNKPRFDFYEGAVY
notes: homohexamer (108 kDa)
Km ([1]; other: PDTM5): 12 mM | kcat ([1]; other: PDTM5): 1.99 s⁻¹
